Target: Recombinant Art v 3.0201, non-specific lipid transfer protein of Artemisia vulgaris (mugwort) pollen (Artemisia vulgaris (mugwort)) (UniProt C4MGG9)
Assay: crystal structure + other: NMR spectroscopy; recombinant non-tagged Art v 3.0201; X-ray crystallography of the non-labelled protein, NMR of the 13C/15N-labelled protein

## Recombinant Art v 3.0201, non-specific lipid transfer protein of Artemisia vulgaris (mugwort) pollen (from UniProt C4MGG9 1-114) (non-labelled protein)
  stoichiometry N: 2

Reference: PMC5998909
